US20050238685A1, “Method of binding a compound to a surface” (priority 2002, published 2005)
Like-named read-outs stand apart in the source and are kept apart here.

B1: SC3: class I hydrophobin of Schizophyllum commune (protein)
chain: GGHPGTTTPPVTTTVTVTTPPSTTTIAAGGTCTTGSLSCCNQVQSASSSPVTALLGLLGIVLSDLNVLVGISCSPLTVIGVGGSGCSAQTVCCENTQFNGLINIGCTPINIL
B2: cerato-ulmin: class II hydrophobin of Ophiostoma ulmi (protein, UniProt Q06153 26-100, looked up)
Class II hydrophobin CU: SDSYDPCTGLLQKSPQCCNTDILGVANLDCHGPPSVPTSPSQFQASCVADGGRSARCCTLSLLGLALVCTDPVGI
B3: cryparin: class II hydrophobin of Cryphonectria parasitica (protein, UniProt P52753 23-118, looked up)
Class II hydrophobin CRP: GGGGGGSGSGSGSGSGSGSGGGSTTYTACSSTLYSEAQCCATDVLGVADLDCETVPETPTSASSFESICATSGRDAKCCTIPLLGQALLCQDPVGL
B4: esterase: porcine liver esterase, 60 kD (protein)
chain: GQPASPPVVDTAQGRVLGKYVSLEGLAQPVAVFLGVPFAKPPLGSLRFAPPQPAEPWSFVKNTTSYPPMCCQDPVVEQMTSDLFTNGKERLTLEFSEDCLYLNIYTPADLTKRGRLPVMVWIHGGGLVLGGAPMYDGVVLAAHENVVVVAIQYRLGIWGFFSTGDEHSRGNWGHLDQVAALHWVQENIANFGGDPGSVTIFGESAGGESVSVLVLSPLAKNLFHRAISESGVALTVALVRKDMKAAAKQIAVLAGCKTTTSAVFVHCLRQKSEDELLDLTLKMKFLTLDFHGDQRESHPFLPTVVDGVLLPKMPEEILAEKDFNTVPYIVGINKQEFGWLLPTMMGFPLSEGKLDQKTATSLLWKSYPIANIPEELTPVATDKYLGGTDDPVKKKDLFLDLMGDVVFGVPSVTVARQHRDAGAPTYMYEFQYRPSFSSDKKPKTVIGDHGDEIFSVFGFPLLKGDAPEEEVSLSKTVMKFWANFARSGNPNGEGLPHWPMYDQEEGYLQIGVNTQAAKRLKGEEVAFWNDLLSKEAAKKPPKIKHAEL
B5: trypsin: bovine pancreas trypsin, 25 kD (protein)
chain: IVGGYTCGANTVPYQVSLNSGYHFCGGSLINSQWVVSAAHCYKSGIQVRLGEDNINVVEGNEQFISASKSIVHPSYNSNTLNNDIMLIKLKSAASLNSRVASISLPTSCASAGTQCLISGWGNTKSSGTSYPDVLKCLKAPILSDSSCKSAYPGQITSNMFCAGYLEGGKDSCQGDSGGPVVCSGKLQGIVSWGSGCAQKNKPGVYTKVCNYVSWIKQTIASN
B6: alkaline phosphatase: human placental alkaline phosphatase (Roche) (protein)
chain: IIPVEEENPDFWNREAAEALGAAKKLQPAQTAAKNLIIFLGDGMGVSTVTAARILKGQKKDKLGPEIPLAMDRFPYVALSKTYNVDKHVPDSGATATAYLCGVKGNFQTIGLSAAARFNQCNTTRGNEVISVMNRAKKAGKSVGVVTTTRVQHASPAGTYAHTVNRNWYSDADVPASARQEGCQDIATQLISNMDIDVILGGGRKYMFRMGTPDPEYPDDYSQGGTRLDGKNLVQEWLAKRQGARYVWNRTELMQASLDPSVTHLMGLFEPGDMKYEIHRDSTLDPSLMEMTEAALRLLSRNPRGFFLFVEGGRIDHGHHESRAYRALTETIMFDDAIERAGQLTSEEDTLSLVTADHSHVFSFGGYPLRGSSIFGLAPGKARDRKAYTVLLYGNGPGYVLKDGARPDVTESESGSPEYRQQSAVPLDEETHAGEDVAVFARGPQAHLVHGVQEQTFIAHVMAFAACLEPYTACDLAPPAGTTD

Tests used:
[1] = cited from earlier work
[2] = at 50 μg ml^−1; cited from earlier work
[3] = class I: resisting 2% SDS at 100° C., class II: 60% ethanol; cited from earlier work
[4] = Esterase, lipase and trypsin on SC3-coated oil droplets, spectrophotometric substrate conversion; assay type: biochemical
Protocol: The sheets with and without immobilized enzyme were used in a chromogenic assay. A 1.5 ml cuvette was filled with 1 ml of a 5 mM 4-nitrophenyl acetate solution (esterase substrate), 5 mM Na-benzoyl-DL-arginine-p-nitroanilide (trypsin substrate), or 5 mM 1,2-di-O-decanoyl-rac-glycero-3-glutaric acid-resorufin labeled in the appropriate buffers. The cuvette was placed in the spectrophotometer and the reaction was started by placing the hydrophobin-coated sheets with or without immobilized enzyme in the cuvette parallel to the light beam. The light absorbance at the appropriate wavelength was followed in time. After one hour of incubation, the sheets were taken from the cuvette and the reaction in the cuvette was followed for an additional 24 hours. The sheets were washed with water and were transferred to a new cuvette with fresh substrate and the reaction was followed again. […] 400 μl of a 100 μg/ml solution of the mentioned enzymes was added to a 1 mm cuvette and a circular dichroism spectrum was recorded between 190 and 250 nm. To this solution, increasing concentrations of pure colloidal TEFLON™ or hydrophobin-coated TEFLON™ was added and changes were followed by recording CD-spectra. […] When TEFLON™ coated with hydrophobin is added to the enzyme solutions, the changes in CD signal (after correction for the hydrophobin signal) are less pronounced. […]

[5] = Different enzymes immobilized via SC3 hydrophobin on TEFLON, spectrophotometry at 412 and 435 nm; assay type: biochemical; settings: SC3-coated TEFLON; for function after storage: 4° C. in buffer solution
Protocol: The surface was first coated with SC3 hydrophobin by immersion in the protein aqueous solution (0.3 mg/mL) during approximately 30 minutes. The obtained modified surface was then immersed in an aqueous enzyme solution during approximately 30 minutes. After each step, the TEFLON™ surface was rinsed with an adequate buffer solution. Activity of the immobilized enzymes was followed by spectrophotometry at 412 and 435 nm after immersion of the functionalized surface in the corresponding substrate solution. The optical density of the solution increases after the immersion of the functionalized surface and stays constant after its removal. […] The functionalized TEFLON® was stored at 4° C. in an Eppendorf tube containing a buffer solution.
(Biocatalysts, Wales; final concentration 2.1 mg/mL), lipase from Candida cylindracea (Biocatalysts, Wales; final concentration 0.25 mg/mL), porcine liver esterase (SIGMA; 41 U/mg of solid, final concentration 2.4 mg/mL), bovine pancreas trypsin (SIGMA; 8,750 U/mg of solid).

[6] = Circular dichroism of enzymes on binding to bare or hydrophobin-coated colloidal TEFLON; assay type: physicochemical; settings: bare colloidal TEFLON
[7] = assay type: biochemical
Protocol: The sheets were removed from the hydrophobin solution and were immediately washed with large amounts of water to remove any unbound hydrophobin (5×50 ml water for five minutes); these coatings are referred to as the α-helix state. Part of the sheets were boiled in a 2% SDS solution for ten minutes, after which the sheets were extensively washed with water; these coatings are referred to as the β-sheet state. The colloidal TEFLON™ was collected by gentle centrifugation (two minutes, 2000 rpm), the supernatant was removed and the TEFLON™ pellet was resuspended in 2 ml pure water followed by centrifugation. The TEFLON™ pellet was washed five times with water to remove all unbound hydrophobin.
The bare and hydrophobin-coated sheets (α-helix state and β-sheet state) were incubated in 2 ml of enzyme solution in 3 ml glass vials at 25° C. for two hours. The used enzyme solutions were 100 μg/ml of 60 kD esterase (porcine liver), 40 kD lipase (wheat germ), or 25 kD trypsin (bovine pancreas). The sheets were washed extensively with water to remove any unbound enzyme.
The sheets with and without immobilized enzyme were used in a chromogenic assay. A 1.5 ml cuvette was filled with 1 ml of a 5 mM 4-nitrophenyl acetate solution (esterase substrate), 5 mM Na-benzoyl-DL-arginine-p-nitroanilide (trypsin substrate), or 5 mM 1,2-di-O-decanoyl-rac-glycero-3-glutaric acid-resorufin labeled in the appropriate buffers. The cuvette was placed in the spectrophotometer and the reaction was started by placing the hydrophobin-coated sheets with or without immobilized enzyme in the cuvette parallel to the light beam. The light absorbance at the appropriate wavelength was followed in time. After one hour of incubation, the sheets were taken from the cuvette and the reaction in the cuvette was followed for an additional 24 hours. The sheets were washed with water and were transferred to a new cuvette with fresh substrate and the reaction was followed again. […] 400 μl of a 100 μg/ml solution of the mentioned enzymes was added to a 1 mm cuvette and a circular dichroism spectrum was recorded between 190 and 250 nm. To this solution, increasing concentrations of pure colloidal TEFLON™ or hydrophobin-coated TEFLON™ was added and changes were followed by recording CD-spectra. […] When TEFLON™ coated with hydrophobin is added to the enzyme solutions, the changes in CD signal (after correction for the hydrophobin signal) are less pronounced. […] Furthermore, oil droplets were coated with hydrophobin. Coating of oil droplets was achieved by emulsifying 100 μl of oil (mineral oil or paraffin oil) in 3 ml of water by sonication and adding 3 ml of an aqueous solution of hydrophobin (200 μg/ml). Alternatively, the oil was directly emulsified in the hydrophobin solution and 3 ml was added. […]

Molecule	solubility of assembled membranes [3]	catalytic activity of immobilized enzyme [4]	state of immobilized enzymes (denaturation, desorption) [5]	function after storage [5]	structural change in CD-spectra upon binding [6]	activity and stability of enzyme attached to hydrophobin-coated sheets [7]	activity of enzyme attached to bare sheets [7]	other results
B1								water contact angle of coated TEFLON ([1]; TEFLON (110°) coated with hydrophobin): 48 °; water contact angle ([1]; hydrophilic side of the membrane): 36 °; water contact angle ([1]; hydrophobic side of the membrane): 110 °; maximal lowering of the water surface tension, from 72 to [2]: 24 mJ m^−2
B2	readily dissociate in 60% ethanol and in 2% SDS							
B3	readily dissociate in 60% ethanol and in 2% SDS							
B4		still catalytically active	not denatured and are not desorbed from the surface	still functional after several weeks	underwent structural changes	active and stable for up to one month	not active	
B5		still catalytically active	not denatured and are not desorbed from the surface	still functional after several weeks	underwent structural changes	active and stable for up to one month	not active	
B6								activity of enzyme attached to bare wells: not active
